Data from publication PMC12747287, “Human O-GlcNAcase catalytic-stalk dimer anchors flexible histone binding domains” (Research Square, 2025).

Molecular target: T1, full length human O-GlcNAcase, long isoform (OGA-L) (human, UniProt O60502 1-916)
T1 construct: human O-GlcNAcase, long isoform (OGA-L), 103 kDa, full length; Dimer in the cryo-EM structure; The methods name an anti-c-Myc antibody beside the anti-His6 antibody; the 'C-term' tag may be c-Myc; also called hOGA; full-length OGA; source: E. coli TOP10 (pBAD/HisA, codon optimized), purified (Talon resin for the arrays; HisTrap and size-exclusion chromatography for cryo-EM); not shown: His6, …
T1 sequence (looked up): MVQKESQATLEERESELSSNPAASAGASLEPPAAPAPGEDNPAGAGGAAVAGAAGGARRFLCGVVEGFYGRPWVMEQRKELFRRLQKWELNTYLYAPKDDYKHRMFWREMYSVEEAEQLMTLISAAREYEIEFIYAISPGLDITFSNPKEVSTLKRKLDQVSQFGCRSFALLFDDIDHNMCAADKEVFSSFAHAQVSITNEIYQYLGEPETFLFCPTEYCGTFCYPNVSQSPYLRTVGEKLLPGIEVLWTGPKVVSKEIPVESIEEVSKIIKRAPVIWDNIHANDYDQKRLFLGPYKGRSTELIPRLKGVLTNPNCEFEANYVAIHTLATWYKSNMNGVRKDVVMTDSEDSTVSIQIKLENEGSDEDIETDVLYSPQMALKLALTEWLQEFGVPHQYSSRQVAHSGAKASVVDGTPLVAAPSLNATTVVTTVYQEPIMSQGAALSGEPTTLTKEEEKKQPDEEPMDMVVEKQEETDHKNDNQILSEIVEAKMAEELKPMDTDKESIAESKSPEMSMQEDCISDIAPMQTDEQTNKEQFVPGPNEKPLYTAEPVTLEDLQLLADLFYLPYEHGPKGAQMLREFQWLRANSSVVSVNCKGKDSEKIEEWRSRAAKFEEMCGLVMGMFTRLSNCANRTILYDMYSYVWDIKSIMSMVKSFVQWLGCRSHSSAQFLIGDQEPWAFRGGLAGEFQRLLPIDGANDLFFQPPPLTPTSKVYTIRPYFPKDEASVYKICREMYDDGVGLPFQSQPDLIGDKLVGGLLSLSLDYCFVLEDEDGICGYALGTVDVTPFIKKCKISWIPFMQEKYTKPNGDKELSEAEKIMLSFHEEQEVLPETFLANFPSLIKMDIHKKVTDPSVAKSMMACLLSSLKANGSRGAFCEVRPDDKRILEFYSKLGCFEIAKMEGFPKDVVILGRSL
Test: peptide or protein array; Active Motif MODified Histone Peptide Array (384 modified histone peptides in duplicate, on the array); 100 nM protein in 20 mM Tris pH 7.5, 1 mM DTT, 0.5 mg/mL BSA, RT 1 hour; detected by anti-His6 antibody (also C-term tag antibody) and IR-800 secondary antibody
Details: both partners purified

B1: histone H4 1-19 peptide, K5,8,12,16Ac (peptide, UniProt P62805 2-20, looked up)
peptide: SGRGKGGKGLGKGGAKRHR
modifications: acetyl-lysine at K5, K8, K12 and K16
notes: histone H4 tail peptide, residues 1-19; also called H4 1-19 K5,8,12,16Ac; H4K^5,8,12,16Ac; source: bought: Active Motif MODified Histone Peptide Array (peptide on the array)
binding result: binds
